Measurements published in patent US20220135701A1 (Genentech, published 2022).
Blank lines part the entries; values can stand above or below the binder they belong to.

Experiments:
human MerTK [1] = biological target: T1, human MerTK (human, UniProt Q12866 26-499); assay: SPR BIAcore T200, Ab captured, 25C
T1 construct: also called HuMER
T1 sequence: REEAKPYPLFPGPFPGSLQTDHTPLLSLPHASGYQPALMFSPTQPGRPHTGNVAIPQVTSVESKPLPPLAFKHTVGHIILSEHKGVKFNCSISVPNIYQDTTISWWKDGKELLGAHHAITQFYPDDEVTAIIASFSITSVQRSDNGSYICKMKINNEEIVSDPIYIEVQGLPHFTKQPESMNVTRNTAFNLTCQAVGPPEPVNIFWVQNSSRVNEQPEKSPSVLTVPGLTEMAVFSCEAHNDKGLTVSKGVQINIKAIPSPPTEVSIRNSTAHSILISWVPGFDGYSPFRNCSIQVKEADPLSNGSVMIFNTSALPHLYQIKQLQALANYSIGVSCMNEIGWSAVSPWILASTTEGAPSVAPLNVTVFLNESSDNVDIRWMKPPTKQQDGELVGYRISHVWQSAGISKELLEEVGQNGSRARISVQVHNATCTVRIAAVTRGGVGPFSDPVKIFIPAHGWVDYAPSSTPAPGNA
How it was run: (§1)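 Rabbit or humanized antibody captured to ~100 RU; MerTK injected as 3-fold dilutions from 0.4 nM to 100 nM in HBS-EP (HEPES pH 7.4) at 30 μl/min, at 25° C. or 37° C. kon and koff fitted to a 1:1 Langmuir model; KD = koff/kon.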

cynomolgus monkey MerTK [2] = biological target: T2, cynomolgus monkey MerTK (cynomolgus monkey, UniProt A0A2K5V1H9 32-505); assay: SPR BIAcore T200, Ab captured, 25C
T2 construct: Soluble analyte in SPR; also called Cyno MerTK
T2 sequence: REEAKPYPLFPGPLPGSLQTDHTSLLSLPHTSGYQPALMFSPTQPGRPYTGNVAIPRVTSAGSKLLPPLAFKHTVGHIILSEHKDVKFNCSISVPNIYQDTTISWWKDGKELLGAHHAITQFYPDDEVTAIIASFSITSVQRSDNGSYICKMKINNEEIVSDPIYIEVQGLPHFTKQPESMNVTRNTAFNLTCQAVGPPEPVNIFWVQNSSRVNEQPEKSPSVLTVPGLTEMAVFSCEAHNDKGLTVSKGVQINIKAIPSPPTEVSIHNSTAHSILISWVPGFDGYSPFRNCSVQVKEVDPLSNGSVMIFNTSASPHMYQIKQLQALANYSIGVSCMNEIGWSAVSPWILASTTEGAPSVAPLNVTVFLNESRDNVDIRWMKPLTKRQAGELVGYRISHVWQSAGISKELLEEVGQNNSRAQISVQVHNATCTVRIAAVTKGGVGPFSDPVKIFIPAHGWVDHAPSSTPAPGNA
How it was run: as §1

mouse MerTK [3] = biological target: T3, mouse MerTK (mouse, UniProt Q60805 23-496); assay: SPR BIAcore T200, Ab captured, 25C
T3 construct: also called MuMER
T3 sequence (looked up): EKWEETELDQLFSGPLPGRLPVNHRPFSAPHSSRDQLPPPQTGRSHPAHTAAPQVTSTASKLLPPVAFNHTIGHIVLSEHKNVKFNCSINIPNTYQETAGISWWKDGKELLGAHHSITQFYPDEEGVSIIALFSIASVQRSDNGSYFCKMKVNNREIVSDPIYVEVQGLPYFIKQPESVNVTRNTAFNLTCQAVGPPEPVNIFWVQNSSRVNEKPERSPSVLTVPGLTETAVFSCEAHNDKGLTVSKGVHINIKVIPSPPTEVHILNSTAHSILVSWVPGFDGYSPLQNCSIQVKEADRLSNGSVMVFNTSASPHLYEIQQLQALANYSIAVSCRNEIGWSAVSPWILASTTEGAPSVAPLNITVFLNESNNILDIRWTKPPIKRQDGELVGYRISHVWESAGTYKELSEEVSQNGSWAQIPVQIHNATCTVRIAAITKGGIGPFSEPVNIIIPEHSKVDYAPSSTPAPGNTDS
How it was run: as §1

human MerTK [4] = biological target: T1, human MerTK; assay: SPR BIAcore T200, Ab captured, 37C
Method: (§2) All binding affinity determinations were obtained using Surface Plasmon Resonance (SPR) measurements from a BIAcore™-T200 instrument. Briefly, each rabbit or humanized antibody was captured to achieve approximately 100 RU (Response Units). Then, 3-fold serial dilutions of MerTK from various species (0.4 nM to 100 nM) diluted in HBS-EP buffer (0.01M HEPES pH 7.4, 0.15M NaCl, 3 mM EDTA and 0.05% v/v surfactant P20) was injected into the BIAcore™-T200 instrument at 25° C. or 37° C. with a flow rate of 30 μl/min. Association rates (kₒₙ) and dissociation rates (koff) were calculated using a simple one-to-one Langmuir binding model (BIAcore T200 evaluation software version 2.0). The equilibrium dissociation constant (KD) was calculated as the ratio koff/kₒₙ.

cynomolgus monkey MerTK [5] = biological target: T2, cynomolgus monkey MerTK; assay: SPR BIAcore T200, Ab captured, 37C
Method: as §2

rat MerTK = biological target: T4, rat MerTK (rat, UniProt P57097 23-496, limits assumed); assay: SPR BIAcore T200, Ab captured, 37C
T4 construct: Soluble analyte in SPR
T4 sequence (looked up): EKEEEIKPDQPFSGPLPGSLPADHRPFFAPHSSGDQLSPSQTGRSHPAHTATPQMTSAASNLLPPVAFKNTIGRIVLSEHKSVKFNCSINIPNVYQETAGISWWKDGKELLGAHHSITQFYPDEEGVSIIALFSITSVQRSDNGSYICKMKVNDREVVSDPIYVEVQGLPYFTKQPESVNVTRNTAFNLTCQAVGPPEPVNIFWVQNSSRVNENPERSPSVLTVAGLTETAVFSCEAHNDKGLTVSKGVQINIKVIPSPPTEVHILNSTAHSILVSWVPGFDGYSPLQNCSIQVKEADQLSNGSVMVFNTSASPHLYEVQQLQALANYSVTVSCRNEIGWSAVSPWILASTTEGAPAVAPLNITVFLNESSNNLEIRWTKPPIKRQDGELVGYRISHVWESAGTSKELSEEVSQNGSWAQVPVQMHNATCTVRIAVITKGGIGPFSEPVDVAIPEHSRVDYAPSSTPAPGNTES
Method: as §2

mouse MerTK [6] = biological target: T3, mouse MerTK; assay: SPR BIAcore T200, Ab captured, 37C
Method: as §2

HuMER (R26-A499) = biological target: T5, HuMER (R26-A499) (human, UniProt Q12866 26-499); assay: SPR BIAcore T200, Ab captured, 25C
T5 construct: Extracellular domain with both Ig-like and both fibronectin-like domains; also called human MerTK extracellular domain
T5 sequence: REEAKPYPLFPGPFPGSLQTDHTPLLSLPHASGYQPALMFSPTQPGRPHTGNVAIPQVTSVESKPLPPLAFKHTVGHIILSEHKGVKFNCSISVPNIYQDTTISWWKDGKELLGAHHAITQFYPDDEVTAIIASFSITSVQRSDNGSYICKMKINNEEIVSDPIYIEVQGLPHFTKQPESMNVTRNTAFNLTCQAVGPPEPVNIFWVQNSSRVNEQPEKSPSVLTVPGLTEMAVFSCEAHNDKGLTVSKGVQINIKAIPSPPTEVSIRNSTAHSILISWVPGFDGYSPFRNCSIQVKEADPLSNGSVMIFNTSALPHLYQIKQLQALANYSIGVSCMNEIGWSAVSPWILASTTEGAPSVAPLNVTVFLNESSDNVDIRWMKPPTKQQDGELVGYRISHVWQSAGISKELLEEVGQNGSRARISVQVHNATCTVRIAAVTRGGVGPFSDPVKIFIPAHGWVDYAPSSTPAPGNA
How it was run: (§3)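 Rabbit antibody captured to ~100 RU; MerTK domain injected as 3-fold dilutions (0.4–100 nM) in HBS-EP pH 7.4 at 25 °C, 30 μl/min. kon and koff from 1:1 Langmuir fit; KD = koff/kon.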

MuMER (E23-S496) = biological target: T6, MuMER (E23-S496) (mouse, UniProt Q60805 23-496); assay: SPR BIAcore T200, Ab captured, 25C
T6 construct: range 23-496; also called mouse MerTK extracellular domain
T6 sequence (looked up): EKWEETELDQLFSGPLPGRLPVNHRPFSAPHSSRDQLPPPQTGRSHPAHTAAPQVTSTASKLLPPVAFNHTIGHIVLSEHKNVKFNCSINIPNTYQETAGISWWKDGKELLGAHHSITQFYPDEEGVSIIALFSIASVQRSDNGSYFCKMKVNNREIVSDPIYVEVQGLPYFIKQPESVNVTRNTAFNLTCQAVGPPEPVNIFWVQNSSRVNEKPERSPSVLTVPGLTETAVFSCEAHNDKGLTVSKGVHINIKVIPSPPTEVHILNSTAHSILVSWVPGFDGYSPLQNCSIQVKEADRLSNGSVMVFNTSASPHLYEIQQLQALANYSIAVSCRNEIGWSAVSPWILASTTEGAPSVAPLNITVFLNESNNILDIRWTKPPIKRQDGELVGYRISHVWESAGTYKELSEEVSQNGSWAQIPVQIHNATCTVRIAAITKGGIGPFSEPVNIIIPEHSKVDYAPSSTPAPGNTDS
How it was run: as §3

human MerTK [7] = biological target: T1, human MerTK; assay: SPR BIAcore T200, Ab captured, 37C; remark: listed apart in the source
human MerTK [8] = biological target: T1, human MerTK; assay: SPR BIAcore T200, Ab captured, 37C; remark: listed apart in the source
How it was run: as §1

cynomolgus monkey MerTK [9] = biological target: T2, cynomolgus monkey MerTK; assay: SPR BIAcore T200, Ab captured, 37C; remark: listed apart in the source
How it was run: as §1

human MerTK [10] = biological target: T1, human MerTK; assay: SPR BIAcore T200, Ab captured, 37C; remark: listed apart in the source
Method: as §2

cynomolgus monkey MerTK [11] = biological target: T2, cynomolgus monkey MerTK; assay: SPR BIAcore T200, Ab captured, 37C; remark: listed apart in the source
Method: as §2

[12] = biological target: T7, mouse MerTK on mouse macrophages (mouse, UniProt Q60805 19-994); assay: cell-based or functional assay
T7 sequence (looked up): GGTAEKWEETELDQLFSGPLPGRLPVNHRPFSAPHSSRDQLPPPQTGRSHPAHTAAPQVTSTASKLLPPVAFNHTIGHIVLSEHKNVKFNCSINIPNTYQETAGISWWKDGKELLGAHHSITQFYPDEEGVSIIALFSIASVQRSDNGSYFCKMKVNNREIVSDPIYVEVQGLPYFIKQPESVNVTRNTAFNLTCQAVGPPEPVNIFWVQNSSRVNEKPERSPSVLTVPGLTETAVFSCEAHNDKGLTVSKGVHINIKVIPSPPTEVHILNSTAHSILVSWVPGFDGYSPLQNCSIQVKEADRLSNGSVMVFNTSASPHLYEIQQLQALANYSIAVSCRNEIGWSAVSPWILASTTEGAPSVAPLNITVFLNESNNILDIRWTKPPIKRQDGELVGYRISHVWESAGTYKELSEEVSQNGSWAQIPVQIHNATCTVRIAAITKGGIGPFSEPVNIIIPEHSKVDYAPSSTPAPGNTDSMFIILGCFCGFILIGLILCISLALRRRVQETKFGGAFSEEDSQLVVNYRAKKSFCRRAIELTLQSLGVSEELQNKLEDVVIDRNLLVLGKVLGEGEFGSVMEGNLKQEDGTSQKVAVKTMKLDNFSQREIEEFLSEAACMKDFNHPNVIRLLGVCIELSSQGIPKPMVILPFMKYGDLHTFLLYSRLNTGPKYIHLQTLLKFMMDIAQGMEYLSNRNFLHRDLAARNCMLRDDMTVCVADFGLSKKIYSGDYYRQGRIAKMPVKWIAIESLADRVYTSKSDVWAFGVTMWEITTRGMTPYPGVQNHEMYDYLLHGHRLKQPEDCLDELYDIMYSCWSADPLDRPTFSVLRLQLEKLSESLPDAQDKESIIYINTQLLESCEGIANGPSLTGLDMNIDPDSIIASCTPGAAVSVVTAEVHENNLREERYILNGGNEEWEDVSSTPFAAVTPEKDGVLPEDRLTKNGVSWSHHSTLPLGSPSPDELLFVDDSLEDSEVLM

[13] = biological target: T7, mouse MerTK on mouse macrophages; assay: cell-based or functional assay; remark: listed apart in the source

Kd (human MerTK [1]): 3.4 nM
Kd (cynomolgus monkey MerTK [2]): 3 nM
Kd (mouse MerTK [3]): 0.7 nM
Kd (human MerTK [4]): 9.9 nM
Kd (cynomolgus monkey MerTK [5]): 4.1 nM
Kd (rat MerTK): 2.4 nM
Kd (mouse MerTK [6]): 0.8 nM
Kd (HuMER (R26-A499)): 3.4 nM
Kd (MuMER (E23-S496)): 0.7 nM
B1: Rbt10C3 (antibody, V domains shown)
VH: QSLEESGGRLVTPGTPLTLTCTASGFSLSGYTMGWVRQAPGKGLEYIGVISSGGTTYYTNWAKGRFTISKTSTTVDLKITSPTTEDTATYFCARVAFTAYGGGGFPTLHRLDLWGQGTLVTVSS
VL: AQVLIQTASSVSAAVGGTVTISCQSSESVYNNDYLAWYQQKPGQPPKLLIYSASTLASGVPSRFKGSGSGTQFTLTISDLECDDAATYYCAGGYLGNNVFGGGTEVVVK
notes: Recombinant rabbit monoclonal antibody, Expi293, protein A purified

Kd (human MerTK [7]): 4.8 nM
Kd (human MerTK [8]): 4.8 nM
Kd (cynomolgus monkey MerTK [9]): 5.6 nM
Kd (human MerTK [10]): 4.3 nM
Kd (cynomolgus monkey MerTK [11]): 5 nM
B2: h13B4.v1 (antibody, V domains shown)
VH: EQQLVESGEGLVQPGGSLRLSCAVSGFSLSSYAMGWVRQAPGKGLEWIGIINSYGNTYYANWAKGRFTISRDSSKNTVYLQMGSLRAEDMAVYFCARDPGVSSNLWGPGTLVTVSS
VL: DVQMTQSPSTLSASVGDRVTITCQASQNIYSGLAWYQQKPGKPPKLLIYGASKLASGVPSRFSGSGSGTEFTLTISSLQPDDFATYYCQATYYSSNSVAFGGGTKVEIK
notes: also called h13B4.V1 (Parent); 13B4 Humanized mAb V1

fold decrease in phagocytic clearance of apoptotic thymocytes by peritoneal macrophages, against control anti-gp120 [12]: ~8 fold
fold potency in inhibiting mouse macrophage phagocytosis, against h10F7.v16 [12]: 4.8 fold
IC50 (nM), efferocytosis by mouse macrophages, Average [13]: 0.19 nM
B3: anti-MerTK 14C9 (mIgG2a LALAPG) (antibody, V domains shown)
VH: QSVEESGGRLVTPGTPLTLTCTVSGIDLSANTMNWVRQAPGKGLEWIGIFTATGSTYYATWVNGRFTISKTSTTVDLKITSPTTEDTATYFCARSGSGSSSGAFNIWGPGTLVTVSL
VL: DPVLTQTPASVSEPVGGTVTIKCQASQSISSSLAWYQQKPGQPPKLLIYAASILASEISSRFKGSRSGTEFTLTISDLECADAATYYCQCTSYGSLFLGPFGGGTEVVVK
